Laboratory results as given in US20260137822A1 (ABDERA THERAPEUTICS, published 2026).

T1: human DLL3 on cells (HEK293T cells expressing human DLL3; SHP-77 cells) (human, UniProt Q9NYJ7 27-618)
T1 sequence (looked up): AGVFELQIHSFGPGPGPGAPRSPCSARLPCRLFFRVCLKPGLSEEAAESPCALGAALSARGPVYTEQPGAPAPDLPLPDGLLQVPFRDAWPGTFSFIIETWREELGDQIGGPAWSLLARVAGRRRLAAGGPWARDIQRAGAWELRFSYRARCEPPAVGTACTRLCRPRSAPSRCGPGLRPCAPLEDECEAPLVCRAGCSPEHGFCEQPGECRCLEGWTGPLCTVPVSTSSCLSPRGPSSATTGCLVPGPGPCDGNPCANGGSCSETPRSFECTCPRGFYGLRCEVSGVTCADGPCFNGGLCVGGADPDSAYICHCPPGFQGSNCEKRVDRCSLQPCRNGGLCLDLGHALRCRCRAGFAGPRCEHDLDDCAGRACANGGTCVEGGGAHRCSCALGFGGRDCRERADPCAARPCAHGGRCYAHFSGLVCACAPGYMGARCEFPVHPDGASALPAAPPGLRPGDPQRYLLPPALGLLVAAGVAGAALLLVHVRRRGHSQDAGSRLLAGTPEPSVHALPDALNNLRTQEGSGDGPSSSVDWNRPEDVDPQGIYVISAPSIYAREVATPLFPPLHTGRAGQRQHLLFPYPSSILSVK

T2: human DLL3 (recombinant antigen) (human, UniProt Q9NYJ7 27-492, limits assumed)
T2 construct: also called hDLL3
T2 sequence (looked up): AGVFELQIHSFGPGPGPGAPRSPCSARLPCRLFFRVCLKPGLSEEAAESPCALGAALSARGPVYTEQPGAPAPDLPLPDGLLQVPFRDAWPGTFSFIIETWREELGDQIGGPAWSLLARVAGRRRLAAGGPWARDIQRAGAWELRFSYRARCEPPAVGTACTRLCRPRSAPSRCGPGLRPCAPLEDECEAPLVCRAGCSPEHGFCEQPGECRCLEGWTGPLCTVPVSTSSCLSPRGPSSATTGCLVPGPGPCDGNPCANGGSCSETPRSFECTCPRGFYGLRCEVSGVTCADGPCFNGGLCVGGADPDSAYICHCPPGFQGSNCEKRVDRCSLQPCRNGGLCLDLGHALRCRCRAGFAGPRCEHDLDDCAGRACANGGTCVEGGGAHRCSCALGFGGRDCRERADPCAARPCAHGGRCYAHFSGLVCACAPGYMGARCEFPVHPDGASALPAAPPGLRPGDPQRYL

T3: mouse DLL3 (recombinant antigen) (mouse, UniProt O88516 25-477, limits assumed)
T3 construct: also called mDLL3
T3 sequence (looked up): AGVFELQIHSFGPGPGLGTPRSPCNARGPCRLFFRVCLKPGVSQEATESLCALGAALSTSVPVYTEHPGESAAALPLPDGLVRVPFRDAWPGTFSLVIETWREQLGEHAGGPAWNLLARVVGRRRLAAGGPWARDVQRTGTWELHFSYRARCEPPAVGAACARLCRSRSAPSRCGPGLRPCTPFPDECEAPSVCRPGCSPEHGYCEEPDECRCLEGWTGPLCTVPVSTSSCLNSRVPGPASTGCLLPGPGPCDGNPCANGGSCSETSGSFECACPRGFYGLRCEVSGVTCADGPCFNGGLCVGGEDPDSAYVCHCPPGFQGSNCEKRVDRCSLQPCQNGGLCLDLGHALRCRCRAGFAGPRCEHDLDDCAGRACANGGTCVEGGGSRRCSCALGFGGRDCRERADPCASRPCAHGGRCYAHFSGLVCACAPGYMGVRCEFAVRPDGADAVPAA

B1: Clone 107 VHH-Fc, H435Q-Fc format (Fc fusion)
chain: QVQLVESGGGLVQAGDSLRLSCVASDRTFSSYAVGWFRQAPGKEREFVAAISWNGGRTLYTDSVTGRFTISRDNAKSTVYLQMNGLKPEDTAVYYCAARPAAPTRRLEYDYWGQGTQVTVSS
notes: not shown: hinge and human IgG1 Fc with H435Q (EU)
B2: Clone 126 VHH-Fc, H435Q-Fc format (Fc fusion)
chain: QVQLVESGGGMVQPGGSLRLSCAASGITFSMYSMSWYRQPPGKQRELVAATTTFGSTNYADSVKGRFTISRDNAKNTVYLQMNSLKPEDTAVYLCNARFTSEEYWGQGTQVTVSS
notes: as for B1
B3: Clone 186 VHH-Fc, H435Q-Fc format (Fc fusion)
chain: QVQVVESGGGLVQPGGSLTLSCAASGFDFSTYTVNWYRQAPGKEREKVARISSTGTTTNYANSAKGRFTLSRDNAKNRVYLQMNNLKPEDTAVYFCNFERFDSNYWGQGTQVTVSS
notes: also called 186 (H435Q-Fc); not shown: hinge and human IgG1 Fc with H435Q (EU)
B4: Clone 24 VHH-Fc, H435Q-Fc format (Fc fusion)
chain: QVQYVESGGGLVQPGGSLRLSCAASGFTFSSYRINWYRQPPGKGRELVGSITDTGSTNYADSVKGRFTISRDNAKNTVYLQMSSLKPEDTAVYYCRAPTIAAYWGQGTQVTVSS
notes: also called 24 (H435Q-Fc); not shown: hinge and human IgG1 Fc with H435Q (EU)
B5: Clone 100 VHH-Fc, H435Q-Fc format (Fc fusion)
chain: QVQLVESGGGSVQPGGSLRLSCAASGIVFNSDVMGWYRQVPGKPRELVATITGGGSTNYATSVKGRFTISRDNAKNTVYLQMNSLRPEDTAVYYCNGRRGDSMLAFWAQGTQVTVSS
notes: also called 100 (H435Q-Fc); not shown: hinge and human IgG1 Fc with H435Q (EU)
B6: FOLR1 VHH (VHH-Fc control) (Fc fusion, not shown: a dimerising Fc or GST)
chain: QVQLVESGGGLVQPGGSLRLSCAASGFTVSNSVMAWYRQTPGNEREFVAIINSIGITNYADSVKGRFTISRDNSKNTLYLQMNSLRAEDTAVYVCNRNFDRIYWGQGTLVTVSS
B7: Anti-FOLR1x2; Anti-DLL3x2; GGGGSx3 (bispecific tetravalent VHH-VHH-Fc) (bispecific antibody, not shown: a dimerising Fc or GST)
chain: QVQLVESGGGLVQPGGSLRLSCAASGFTVSNSVMAWYRQTPGNEREFVAIINSIGITNYADSVKGRFTISRDNSKNTLYLQMNSLRAEDTAVYVCNRNFDRIYWGQGTLVTVSSGGGGSGGGGSGGGGSEVQLVESGGGEVQPGGSLRLSCAASGSIFSINAMGWYRQAPGKQRELVAGFTGDTNTIYAESVKGRFTISRDNAKNTVYLQMSSLRAEDTAVYYCAADVQLFSRDYEFYWGQGTLVTVKP
notes: homodimer; 104,948 Da; also called (GGGGS)3
B8: Anti-FOLR1x2; Anti-DLL3x2; GGSx4 (bispecific tetravalent VHH-VHH-Fc) (bispecific antibody, not shown: a dimerising Fc or GST)
chain: QVQLVESGGGLVQPGGSLRLSCAASGFTVSNSVMAWYRQTPGNEREFVAIINSIGITNYADSVKGRFTISRDNSKNTLYLQMNSLRAEDTAVYVCNRNFDRIYWGQGTLVTVSSGGSGGSGGSGGSEVQLVESGGGEVQPGGSLRLSCAASGSIFSINAMGWYRQAPGKQRELVAGFTGDTNTIYAESVKGRFTISRDNAKNTVYLQMSSLRAEDTAVYYCAADVQLFSRDYEFYWGQGTLVTVKP
notes: homodimer; 104,665 Da; also called (GGS)4
B9: Anti-FOLR1x2; Anti-DLL3x2; GGSx3 (bispecific tetravalent VHH-VHH-Fc) (bispecific antibody, not shown: a dimerising Fc or GST)
chain: QVQLVESGGGLVQPGGSLRLSCAASGFTVSNSVMAWYRQTPGNEREFVAIINSIGITNYADSVKGRFTISRDNSKNTLYLQMNSLRAEDTAVYVCNRNFDRIYWGQGTLVTVSSGGSGGSGGSEVQLVESGGGEVQPGGSLRLSCAASGSIFSINAMGWYRQAPGKQRELVAGFTGDTNTIYAESVKGRFTISRDNAKNTVYLQMSSLRAEDTAVYYCAADVQLFSRDYEFYWGQGTLVTVKP
notes: homodimer; 104,263 Da; also called (GGS)3

Columns and labels:
[1] = target: T1, human DLL3 on cells (HEK293T cells …); assay: cell-based or functional assay
[2] = target: T1, human DLL3 on cells (HEK293T cells …); assay: flow cytometry on SHP-77 cells (endogenous DLL3), H435Q-Fc format
[3] = target: T2, human DLL3 (recombinant antigen); assay: affinity to hDLL3, H435Q-Fc format; method not given
[4] = target: T4, human FOLR1 (recombinant antigen) (human, UniProt P15328 25-234, limits assumed); assay: ELISA on hFOLR1
T4 construct: also called hFOLR1
T4 sequence (P15328 25-234 limits assumed): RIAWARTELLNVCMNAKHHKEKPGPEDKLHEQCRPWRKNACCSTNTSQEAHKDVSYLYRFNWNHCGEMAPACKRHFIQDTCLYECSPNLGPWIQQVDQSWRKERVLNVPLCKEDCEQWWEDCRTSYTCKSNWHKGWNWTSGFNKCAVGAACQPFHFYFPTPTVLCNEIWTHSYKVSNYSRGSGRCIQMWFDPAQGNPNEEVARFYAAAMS

[5] = target: T5, mouse FOLR1 (recombinant antigen) (mouse, UniProt P35846 25-232, limits assumed); assay: ELISA on mFOLR1
T5 construct: also called mFOLR1
T5 sequence (P35846 25-232 limits assumed): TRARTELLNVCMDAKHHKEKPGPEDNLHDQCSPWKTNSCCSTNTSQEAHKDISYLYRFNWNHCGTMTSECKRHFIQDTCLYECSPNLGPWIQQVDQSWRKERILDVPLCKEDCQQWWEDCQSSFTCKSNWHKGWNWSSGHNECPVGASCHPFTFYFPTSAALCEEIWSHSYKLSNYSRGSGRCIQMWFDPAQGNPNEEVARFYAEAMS

[6] = target: T2, human DLL3 (recombinant antigen); assay: BLI (Octet), VHH-Fc captured on AHC biosensor, hDLL3 as analyte
Protocol: (§1) Antibody affinity was assessed using Octet Red96e (ForteBio). […] Each cycle was performed with orbital shake speed of 1,000 rpm. […] A set of AHC biosensors was dipped in kinetics buffer for baseline step of 60s. Anti-Target VHH-Fc (5 μg/mL, in kinetics buffer) was loaded onto the biosensors for 240 s followed by a second baseline step of 30 s. The IgG captured sensors were dipped into buffer for single reference subtraction to compensate natural dissociation of capture IgG. Each biosensor was then dipped into corresponding concentration of target protein (human, murine or cynomolgus monomeric protein) for 600 s, followed by 1800 s of dissociation time in kinetics buffer, or conditions as optimized. A new set of AHC biosensors was used for every VHH-Fc. The data was analysed by global fit 1:1 model for the association and dissociation step, (Octet software version v11.0).
(§2) AHC Octet biosensors were used to capture tetramer/VHH-Fc and then dipped into antigen.

[7] = target: T3, mouse DLL3 (recombinant antigen); assay: BLI (Octet), VHH-Fc captured on AHC biosensor, mDLL3 as analyte
Protocol: as §1, §2

[8] = target: T4, human FOLR1 (recombinant antigen); assay: BLI (Octet), VHH-Fc captured on AHC biosensor, hFOLR1 as analyte
Protocol: as §1, §2

[9] = target: T5, mouse FOLR1 (recombinant antigen); assay: BLI (Octet), VHH-Fc captured on AHC biosensor, mFOLR1 as analyte
Protocol: as §1, §2

[10] = target: T6, FOLR1 on OVCAR3 cells (UniProt P15328 25-234); assay: cell binding to FOLR1-positive OVCAR3 cells
T6 construct: whole, on cells; OVCAR3 is a human ovarian cancer line; also called FOLR1-positive OVCAR3 cells
T6 sequence (P15328 25-234): as the sequence (P15328 25-234 limits assumed) above

[11] = target: T2, human DLL3 (recombinant antigen); assay: BLI (Octet), construct captured on AHC biosensor, hDLL3 as analyte
Protocol: as §1
(§3) Tetramers and VHH-Fcs were assessed for affinity to target antigens. AHC Octet biosensors were used to capture tetramer/VHH-Fc and then dipped into antigen.

[12] = target: T4, human FOLR1 (recombinant antigen); assay: BLI (Octet), construct captured on AHC biosensor, hFOLR1 as analyte
Protocol: as §1, §3

[13] = target: T5, mouse FOLR1 (recombinant antigen); assay: BLI (Octet), construct captured on AHC biosensor, mFOLR1 as analyte
Protocol: as §1, §3

[14] = target: T3, mouse DLL3 (recombinant antigen); assay: BLI (Octet), construct captured on AHC biosensor, mDLL3 as analyte; row label taken as a misprint for the bispecific
Protocol: as §1, §3

Row | H435Q-Fc SHP-77 Internalization FOI [1] | EC50 [2] | Kd [3] | EC50 [4] | EC50 [5] | EC50 [10] | Kd [11] | koff [11] | kon [11] | Kd [12] | koff [12] | kon [12] | Kd [13] | koff [13] | kon [13] | Kd [14] | koff [14] | kon [14] | other results | Binder
1 | 1.27 fold over isotype | 0.74 nM | 0.72 nM |  |  |  |  |  |  |  |  |  |  |  |  |  |  |  |  | B1
2 | 1.19 fold over isotype | 0.44 nM | < 1 nM |  |  |  |  |  |  |  |  |  |  |  |  |  |  |  |  | B2
3 | 1.18 fold over isotype | 0.47 nM | 0.55 nM |  |  |  |  |  |  |  |  |  |  |  |  |  |  |  |  | B3
4 | 1.19 fold over isotype | 1.2 nM | 1.08 nM |  |  |  |  |  |  |  |  |  |  |  |  |  |  |  |  | B4
5 | 1.19 fold over isotype | 1.16 nM | 0.2 nM |  |  |  |  |  |  |  |  |  |  |  |  |  |  |  |  | B5
6 |  |  |  | 0.12 nM | 0.08 nM |  |  |  |  |  |  |  |  |  |  |  |  |  | binding result [6]: no binding; binding result [7]: no binding; Kd [8]: 2.19 nM; koff [8]: 0.000828 s⁻¹; kon [8]: 379000 M⁻¹ s⁻¹; Kd [9]: 4.67 nM; koff [9]: 0.00312 s⁻¹; kon [9]: 668000 M⁻¹ s⁻¹ | B6
7 |  |  |  | 0.13 nM | 0.08 nM | 0.7 nM | 1.53 nM | 0.000306 s⁻¹ | 200000 M⁻¹ s⁻¹ | 2.75 nM | 0.00111 s⁻¹ | 405000 M⁻¹ s⁻¹ | 8.32 nM | 0.00407 s⁻¹ | 490000 M⁻¹ s⁻¹ | 3.09 nM | 0.000684 s⁻¹ | 222000 M⁻¹ s⁻¹ |  | B7
8 |  |  |  | 0.11 nM | 0.07 nM | 0.59 nM | 1.24 nM | 0.000267 s⁻¹ | 215000 M⁻¹ s⁻¹ | 2.32 nM | 0.000932 s⁻¹ | 401000 M⁻¹ s⁻¹ | 7.99 nM | 0.00386 s⁻¹ | 483000 M⁻¹ s⁻¹ | 2.88 nM | 0.000642 s⁻¹ | 223000 M⁻¹ s⁻¹ |  | B8
9 |  |  |  | 0.14 nM | 0.09 nM | 0.58 nM | 1.43 nM | 0.000312 s⁻¹ | 219000 M⁻¹ s⁻¹ | 2.68 nM | 0.00102 s⁻¹ | 381000 M⁻¹ s⁻¹ | 7 nM | 0.00399 s⁻¹ | 553000 M⁻¹ s⁻¹ | 2.92 nM | 0.000659 s⁻¹ | 226000 M⁻¹ s⁻¹ |  | B9
